Test [1] deals with T1, mouse VEGF164 (mouse, UniProt Q00731).
T1 chain: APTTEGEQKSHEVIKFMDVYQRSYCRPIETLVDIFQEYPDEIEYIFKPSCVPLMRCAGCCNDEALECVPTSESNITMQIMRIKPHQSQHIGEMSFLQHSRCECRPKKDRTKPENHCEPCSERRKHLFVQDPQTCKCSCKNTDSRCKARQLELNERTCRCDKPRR
The experiment in a line: SPR, pH 5. Background: SPR reads the build-up and loss of mass on a sensor chip optically.

Test [2] addresses T2, human VEGF121 (human, UniProt P15692).
T2 chain: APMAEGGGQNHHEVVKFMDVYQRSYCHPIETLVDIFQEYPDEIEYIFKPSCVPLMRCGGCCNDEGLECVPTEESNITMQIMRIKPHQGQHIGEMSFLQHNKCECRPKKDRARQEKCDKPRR
The experiment in a line: SPR, pH 5.

Test [3] has as its target T3, rat VEGF164 (rat, UniProt P16612).
T3 chain: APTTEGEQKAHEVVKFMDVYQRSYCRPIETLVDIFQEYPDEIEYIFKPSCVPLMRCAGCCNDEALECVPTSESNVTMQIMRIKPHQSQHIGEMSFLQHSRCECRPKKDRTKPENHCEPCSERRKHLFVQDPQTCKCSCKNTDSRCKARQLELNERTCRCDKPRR
As to the kind of experiment: SPR, pH 5.

For test [4], the target named is T4, human VEGF110 (human, UniProt P15692).
T4 chain: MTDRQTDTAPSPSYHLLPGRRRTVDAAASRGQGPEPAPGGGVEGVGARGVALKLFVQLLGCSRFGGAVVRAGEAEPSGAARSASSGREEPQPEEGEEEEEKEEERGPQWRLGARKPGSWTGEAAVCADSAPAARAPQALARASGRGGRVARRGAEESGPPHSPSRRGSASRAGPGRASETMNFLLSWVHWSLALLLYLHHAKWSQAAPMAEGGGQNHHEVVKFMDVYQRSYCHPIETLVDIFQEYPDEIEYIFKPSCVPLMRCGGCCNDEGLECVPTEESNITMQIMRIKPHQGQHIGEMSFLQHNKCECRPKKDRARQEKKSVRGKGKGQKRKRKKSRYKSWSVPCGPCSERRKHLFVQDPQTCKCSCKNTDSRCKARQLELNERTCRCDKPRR
The experiment in a line: SPR, pH 5.

In test [5] the target is T5, human PlGF (human, UniProt P49763).
T5 chain: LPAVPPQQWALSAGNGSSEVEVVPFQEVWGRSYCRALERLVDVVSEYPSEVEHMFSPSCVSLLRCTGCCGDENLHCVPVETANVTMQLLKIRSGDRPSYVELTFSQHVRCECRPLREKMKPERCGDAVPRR
The experiment in a line: SPR, pH 5.

The target of test [6] is T6, human VEGF165 (human, UniProt P15692).
T6 chain: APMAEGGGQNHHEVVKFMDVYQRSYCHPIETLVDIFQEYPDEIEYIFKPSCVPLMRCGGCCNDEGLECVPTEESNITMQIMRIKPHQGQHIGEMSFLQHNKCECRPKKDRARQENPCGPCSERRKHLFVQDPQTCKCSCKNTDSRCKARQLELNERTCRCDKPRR
As to the kind of experiment: SPR, pH 5.

Test [7] has as its target T6, human VEGF165. The experiment in a line: SPR, pH 7.4.
The target of test [8] is T6, human VEGF165. As to the kind of experiment: SPR, pH 7.4.
The target of test [9] is T6, human VEGF165. The experiment in a line: SPR, pH 5.
In test [10] the target is T1, mouse VEGF164. As to the kind of experiment: SPR, pH 5.
In test [11] the target is T3, rat VEGF164. As to the kind of experiment: SPR, pH 5.
Test [12] has as its target T6, human VEGF165. As to the kind of experiment: SPR, pH 5.
In test [13] the target is T1, mouse VEGF164. The experiment in a line: SPR, pH 7.4.
Test [14] addresses T3, rat VEGF164. As to the kind of experiment: SPR, pH 7.4.

B1: 567-min (antibody, V domains shown)
VH: EVQLVESGGGLVQPGGSLRLSCAASGFSLSDYYMCWVRQAPGKGLEWVSCLDYFGSTDDASWAKGRFTISRDNSKNTLYLQMNSLRAEDTAVYYCAKTDDSRGWGLNIWGQGTLVTVSS
VL: EIVMTQSPSTLSASVGDRVIITCQADQSIYIWLSWYQQKPGKAPKLLIYKASTLESGVPSRFSGSGSGAEFTLTISSLQPDDFATYYCQNNAHYSTNGGTFGQGTKLTVLG
Usually Kd stands for the equilibrium constant for the complex coming apart. A high value points to weaker binding. B1: the dissociation constant Kd in test [1] worked out at 0.17 nM; in test [2] it was 0.0241 nM; in [3], 0.279 nM; in test [4] it was 0.0251 nM; in [6] it was 0.23 nM; in test [7], 0.631 nM. For the same molecule, the binding result in test [5] is “no binding”.

B2: 509-maxII (antibody, V domains shown)
VH: EVQLVESGGGLVQPGGSLRLSCTASGFSLSSYYMSWVRQAPGKGLEWVGILDYVGDTDYASWAKGRFTISKDASKNTVYLQMNSLRAEDTAVYYCARTDDSRGWGLNIWGQGTLVTVSS
VL: EIVMTQSPSTLSASVGDRVIITCQASQNIRIWLSWYQQKPGKAPKLLIYKASTLESGVPSRFSGSGSGTEFTLTISSLQPDDFATYYCQNNAHYSTNGGTFGQGTKLTVLG
Regarding B2, the dissociation constant (Kd) in test [1] came to 1.73 nM; in test [2] it was 1.37 nM; in [3], 1.81 nM; in [4], 1.48 nM; in test [6], 3.37 nM; in test [7] it was 2.61 nM. In addition, the binding result in [5] is recorded as “no binding”.

B3: 509-max (antibody, V domains shown)
VH: EVQLVESGGGLVQPGGSLRLSCTASGFSLSSYYMCWVRQAPGKGLEWVGCLDYVGDTDYASWAKGRFTISKDASKNTVYLQMNSLRAEDTAVYYCARTDDSRGWGLNIWGQGTLVTVSS
VL: EIVMTQSPSTLSASVGDRVIITCQASQNIRIWLSWYQQKPGKAPKLLIYKASTLESGVPSRFSGSGSGTEFTLTISSLQPDDFATYYCQNNAHYSTNGGTFGQGTKLTVLG
Take B3: the Kd in test [1] was 1.45 nM; in test [2] it was 0.335 nM; in [3], 1.65 nM; in test [4] it was 0.363 nM; in [6], 1.21 nM; in test [7], 0.378 nM. Further, the binding result in test [5] is on record as “no binding”.

B4: 610-max (antibody, V domains shown)
VH: EVQLVESGGGLVQPGGSLRLSCTASGIDFSGAYYMGWVRQAPGKGLEWVGYIDYDGDRYYASWAKGRFTISKDTSKNTVYLQMNSLRAEDTAVYYCARSDYSSGWGTDIWGQGTLVTVSS
VL: EIVMTQSPSTLSASVGDRVIITCQASQSISSWLSWYQQKPGKAPKLLIYQASTLASGVPSRFSGSGSGTEFTLTISSLQPDDFATYYCQNNYGFRSYGGAFGQGTKLTVLG
The term koff denotes a measure of how fast the partners let go of each other. Low readings indicate slow dissociation, high ones fast dissociation. Consider B4, for which the equilibrium dissociation constant (Kd) in test [6] turned out to be 1.18 nM. Also, the dissociation rate constant (koff) in test [8] worked out at 35.7 s⁻¹.

B5: 435-min (antibody, V domains shown)
VH: EVQLVESGGGLVQPGGSLRLSCAASGFSLNTNYWMCWVRQAPGKGLEWVSCMYTGSYNRAYYASWAKGRFTISRDNSKNTLYLQMNSLRAEDTAVYYCAKGSNWYSDLWGQGTLVTVSS
VL: EIVMTQSPSTLSASVGDRVIITCQASQSIGSSLAWYQQKPGKAPKLLIYTAANLASGVPSRFSGSGSGAEFTLTISSLQPDDFATYYCQNFATSDTVTFGQGTKLTVLG
For B5, in test [9], the binding result was “no binding”. For the same molecule, the equilibrium dissociation constant (Kd) in test [7] came out at 28.9 nM.

B6: 578minmax FW1.4_DHP (961) (antibody, V domains shown)
VH: EVQLVESGGGSVQPGGSLRLSCTASGFSLTDYYYMTWVRQAPGKGLEWVGFIDPDDDPYYATWAKGRFTISRDTSKNTVYLQMNSLRAEDTATYYCAGGDHNSGWGLDIWGQGTTVTVSS
VL: EIVMTQSPSTLSASVGDRVIITCQASEIIHSWLAWYQQKPGKAPKLLIYLASTLASGVPSRFSGSGSGAEFTLTISSLQPDDFATYYCQNVYLASTNGANFGQGTKLTVLG
As for B6, the Kd in [10] came to 0.608 nM; in test [11], 0.845 nM; in [12], 0.576 nM.

B7: 578minmax (903) (antibody, V domains shown)
VH: EVQLVESGGGLVQPGGSLRLSCTASGFSLTDYYYMTWVRQAPGKGLEWVGFIDPDDDPYYATWAKGRFTISRDTSKNTVYLQMNSLRAEDTAVYYCAGGDHNSGWGLDIWGQGTLVTVSS
VL: EIVMTQSPSTLSASVGDRVIITCQASEIIHSWLAWYQQKPGKAPKLLIYLASTLASGVPSRFSGSGSGAEFTLTISSLQPDDFATYYCQNVYLASTNGANFGQGTKLTVLG
Consider B7, for which the dissociation constant (Kd) in test [10] is 0.567 nM; in test [11], 0.748 nM; in test [12], 0.625 nM; in test [13], 0.0273 nM; in test [14] it was 0.0219 nM.

B8: 578min_max T84N_V89L (1008) (antibody, V domains shown)
VH: EVQLVESGGGLVQPGGSLRLSCTASGFSLTDYYYMTWVRQAPGKGLEWVGFIDPDDDPYYATWAKGRFTISRDNSKNTLYLQMNSLRAEDTAVYYCAGGDHNSGWGLDIWGQGTLVTVSS
VL: EIVMTQSPSTLSASVGDRVIITCQASEIIHSWLAWYQQKPGKAPKLLIYLASTLASGVPSRFSGSGSGAEFTLTISSLQPDDFATYYCQNVYLASTNGANFGQGTKLTVLG
B8: the results for the Kd in test [10], in [11] and in test [12] were 1.53 nM, 1.89 nM and 1.59 nM, respectively.

B9: 578min_max T84N_V89L_DHP (1017) (antibody, V domains shown)
VH: EVQLVESGGGSVQPGGSLRLSCTASGFSLTDYYYMTWVRQAPGKGLEWVGFIDPDDDPYYATWAKGRFTISRDNSKNTLYLQMNSLRAEDTATYYCAGGDHNSGWGLDIWGQGTTVTVSS
VL: EIVMTQSPSTLSASVGDRVIITCQASEIIHSWLAWYQQKPGKAPKLLIYLASTLASGVPSRFSGSGSGAEFTLTISSLQPDDFATYYCQNVYLASTNGANFGQGTKLTVLG
B9: the values for the Kd in test [10] and in test [11] were 1.46 nM and 1.82 nM, respectively.

B10: 375-min (antibody, V domains shown)
VH: EVQLVESGGGLVQPGGSLRLSCAASGFSFTTTDYMCWVRQAPGKGLEWVSCILAGDGSTYYANWAKGRFTISRDNSKNTLYLQMNSLRAEDTAVYYCAKSDPASSWSFALWGQGTLVTVSS
VL: EIVMTQSPSTLSASVGDRVIITCQASENINIWLSWYQQKPGKAPKLLIYQASKLASGVPSRFSGSGSGAEFTLTISSLQPDDFATYYCQNNYSYNRYGAPFGQGTKLTVLG
In [6], B10 displayed a Kd of 5.41 nM. This molecule also had a dissociation rate constant (koff) in [8] of 3.86 s⁻¹.

B11: 511-min (antibody, V domains shown)
VH: EVQLVESGGGLVQPGGSLRLSCAASGFSLNTYYMNWVRQAPGKGLEWVSIIAPDDTTYYASWAKSRFTISRDNSKNTLYLQMNSLRAEDTAVYYCAKSGDTTAWGADIWGQGTLVTVSS
VL: EIVMTQSPSTLSASVGDRVIITCQASQSINIWCSWYQQKPGKAPKLLIYRASTLASGVPSRFSGSGSGAEFTLTISSLQPDDFATYYCQANYAYSAGYGAAFGQGTKLTVLG
As for B11, the equilibrium dissociation constant (Kd) was found to be 1.64 nM in test [1]; 1.24 nM in [2]; 2.04 nM in [3]; 1.45 nM in [4]; 2.53 nM in test [6]; 1.31 nM in test [7]. In test [5], the binding result is reported as “no binding”.
